The nanobody polyreactivity screen of Harvey et al. (2022)

Assay: yeast display, Sf9 membrane polyspecificity reagent, FACS + sequencing; frameworks hold sequencing errors
Summary of the method: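 Galactose-induced (36–48 hours) yeast carrying a synthetic nanobody display library were exposed to 10% biotinylated, detergent-solubilized Sf9 membrane reagent at 4 °C for 1 hour. FACS followed streptavidin microbead enrichment, using low and high (top ~1%) gates for expression (anti-HA) and reagent binding (streptavidin). Colony PCR, MiSeq 2 × 250 sequencing and CDR-length filtering followed. Labels for polyreactivity reflect the gate of origin.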

Sequence | polyreactivity (PSR sort gate)
QVQLVESGGGLVQAGGSLRLSCAASGSTLYAYAMGWYRQAPGKERELVAAISSRAVRTYYADSVKGRFTISRDNAKNTVYLQMNSMKPEDTAVYYCAAQRSYAYEYWGQGTQVTVSS | high polyreactivity
QVQLVESGGGLVQAGGSLRLSCAASGGTFYGYAMGWYRQAPGKERELVAASNYRGGRTYYADSVKGRFTISRDNAKNTGYLQMNSLKPEDTAVYYCAATSYRLDGYDYWGQGTQVTVSS | high polyreactivity
QVHLVESGGGLVQAGGSLRLSCAASGRTFGYYAMGWYRQAPGKERELVAAITRTGGSTHYADSVKGRFTISRDNAKNTVYLQMNSLKPEDTAVYYCAADKRGTVYLSSFWMDYWGQGTQVTVSS | low polyreactivity
QVQLVESGGGLVQAGGSLRLSCAASGRTFMKNTMGWYIQAPGKERELVAVITRNGDSTYADSVKGRFTISRDNAKNTVYLQKNSLKPEDTAVFYCNVGSYRYRRYDYWGQGTQVTVSS | high polyreactivity
QVQRVESGGGLVQAGGSLRLSCAASGLTFDPKDMGWYRQAPGKERELVAAISWSSGSTYYADSVKGRFTISRDNAKNTVYLQMNSLKPEYTAVYYCAAYFTLLFGTELYDYDYWGQGTQVTVSS | high polyreactivity
QVQLGESGGGLVQAGGSLRLSCAASGNTFVSNAMGWYRQAPGKERELVAAINSGGSTNYADSVKGRFTISRDNAKNTVYLQMNSLKPEDTAVYYCNKDYDYPQRYWMDYWGQGTQVTVSS | low polyreactivity
QVQLVESGGGLVQAGGSLRLSCAASGSTLYGNVMGWYRQAPGKESELVATINRGGSTNYADSVKGRFTISRDNAKNTVYLQMNSLKPEDTAVYYCAARAFAWYYLEDYWGQGTQVTVSS | low polyreactivity
QVQLVESGGGLVQAGGSLRLSCAASGRIFADNAMGWYRQAPGKERELVATISRNGGRTSYADSVKGRFTISRDNAKNTVYLQMNSLNPEVTAVYYCAVRAPGSSEGYYWGQGSQVTVSS | low polyreactivity
QVQLVESGGGLVQAGGSLLLSSAPTGITFEGYSMGWSRQAPGKERELVAAIRSSGTSTYYADSVKGRFTISRDNAKNTVYLQMNSLKPDDTAVYYCNRARSSSRYDYWGQGTQVTVSS | low polyreactivity
QVQLVESGGVLVQAGGSLRLSCAASGSIFGSYTMGWYRQAPGKEREMVAAISGGGASTYYADSVKGRFTISRDNAKNTVYLQMNSLKPEDTAVYYCYKRGVIERRKPWHYSTFDYWGQGTQVTVSS | low polyreactivity
QVQLVESGGGLVQAGGSLRLSCAASGSIFYSNAMGWYRQAPGKERELVAAITSGGRTYYADSVKGRFTISRDNAKNTVYLQMNSLKPEDTAVFYCAARYYLGSWSDYYYWGQGTQVTVSS | high polyreactivity
QVQLVESGGGLVQAGGSLRLSCAASGRIFLSYAMGVYRQAPGKERELVAGITGTGGRTYYADSVKGRFTISRDNAKNTVYLLMNSLIPEDTAVSYCAAQRRDNIDPKHYYWGQGTQVTVSS | low polyreactivity
QVQLVESGGGLVQAGGSLRLSCAASGSIFSVYVMGWYRQAPGKERELVAAISWSDSDTYYADSVKGRFTISRDNAKNTVYLQMNSLKPEDTAVYYCNVVNPVLYSSYEFDYWGQGTQVTVSS | high polyreactivity
QVQLVESGGGLVQAGGSLRLSCAASGLIFRYYAKGWYRQGPGNEMELVAVISRRGDSTYYADSVKVRFTISRDNAKNTVYLQMISLKPEDTAVFYCAAEYFKRYKSYEYWGQGTQVTVSS | high polyreactivity
QVQLVESGGGLVQAGGSLRLSCAASGNTFTAYAMGWYRQAPGKERELVAAISSSGRTNYADSVKGRFTISRDNAKNTVYLQMNSLKPEDTAVYYCAAYRLSKPFYKYDYWGEGTQVTVSS | high polyreactivity
QVQLVESGGGLVQAGGSLRLSCAASGSIFTYYAMGWYRQAPGKERELVAAISSDGSTTYADSVKGRFTISRDNAKNTVYLQMNSLKPEDTAVLLLQRSGLRRSGVWFDYWGQGTQVTVSS | low polyreactivity
QVLLQESGGGLVQAGGSLRQSCAASGNIFSAGGMGWYRQAPVNERELVAGIGTGTSTNYADSVKGRFTISRDNAKNTVYLQMNSLKPEDTAVYFCAAAFYSGLSHWYWGQGTQVTVSS | low polyreactivity
QVQLVESGGGLVQAGGSLRLSCAASGSIFAGYAMGWYRQAPGKERELVAAISRRGGRTYYADSVKGRFTISRDNAKNTVYLQMNSLKPEDTAVYYCARRVDYISSKYGYWGQGTQVTVSS | high polyreactivity
HVQLVESGGGLVHAGGSLRLSCAASGSILPKYAMGWYRQEPGKQRLLVATITWSGSSTYYADSVKGRFTISRDNAQNTVYLQMNSLKPEDTAVYYCAATGWSSFYYRFEYWGQGTQVTVSS | low polyreactivity
QVQLVESGGGLVQAGGSLRLSCAATGRIFHGYAMGWYRQAPGKERELVAAIDEDGGSTYYADSVKGRFTISRDNAKNTVYLQMNSLKPVDTAVYYCNADCSVRLDGFDYWGQGTQVTVSS | low polyreactivity
QVQLVESCGGLVQAGGSLRLSCAASGIIFRYYAMGWYRQAPGKEREFVASINFSGSSTYYADSVKGRFTISRDNAKNSVYLQMKSLKPEDTAVYYCAAGRRWLYDYWGQGTQVTVSS | high polyreactivity
QVQLVESGGGLVQAGGSLRLSCAASGGIDYTNAMGWYRQAPGKERELVAAIRKNGDSTNYADSVKGRFTISRDNAKNTVYLQMNSLKPEDTAVYYCNAELWPWAYDYWGQGTQVTVSS | low polyreactivity

Sequence | polyreactivity (PSR sort gate)
QDQLVESGGGLVQAGGSLRLSCAASGRTFDLYAMGCYRQAPGKERELVAAITKGGGSTYYADSVKGRFTISRDNAKNTVYLQMNSLKPEDTAVYYCAARKYKRIYRISSGIGYYWGQGTQVTVSS | high polyreactivity
QDQHVESGGGLVQAGGSLRLSGADSGSIFLLYAMGCYRQAPGKERELVAAISTRDGSTYYADSVKGRFTISRDNAKNTVYLQMNSLKPEDTAVYYCATLYSYNYWGQGTQVTVSS | high polyreactivity
QVQLVESGGGLVQAGGSLRLSCAASGRIFYDYAMGWYRQAPGKQREFVAAIRWRGGSTYYADSVKGRFTISRDNAMNTVYLQMNSLKPEDTAVYYCATKSYYKFGYWGQGSQVTVSS | high polyreactivity
QVQLVESGGGLVQAGGSLRLSCAASGITFVFYTMGWYRQAPGKERELVAAITSSGVRTSYADSVKGRFTISRDNAKNTVYLQMNSLKPEDTAVYYCAAKPTYVHKPGYNYWGQGTQVTVSS | high polyreactivity
QVQLVESGGGLVQAGGSLRLSCAASGSIFGYYAMGWYRQAPGKERELVAAIRRSGGSTYYADSVKGRFTISRDNAKNTVYLQMNSLKPEDTAVYYCAARFKSSDWHYYYWGQGTQVTVSS | high polyreactivity
QVQLVESGGGLVQAGGSLRLSCAASGSTFGDYAMGWYRPAPGKERELVAAITIGGITTYADSVKGRFTISRDNAKNTVYLQMNSLKPEDTAVYYCAAAERGDWDDYWGQGTQVTVSS | low polyreactivity
QVQLVESGGGLVQAGGSLRLSCAASGSIFVLYAMGWYRQAPGKERELVAAISWRGGGTYYADSVKGRFTISRDNAKNTVYLLMNSLKPEDTAVYYCAAEYRLDAILYTYEFDYWGQGTQVTVSS | high polyreactivity
QVQLVESGGGLVQAGGSLRLSCAASGFTFSENAMGWYRQAPGRERELVADIPRSGGNTHYADSEKGRFTISRDNAKNTVYLQMNSLKPEDTAVYYCAARVQWLGYGYYYWGQGTQVTVSS | high polyreactivity
QVQLVESRGGLVQAGASLRLSCAASALIFGYYAMGCYRQAPVKEREFVAAIDGSDGTTYYADSVKGRFTIARDNAKNTVYLQMNSLKPEDTAVYYCNADSSSYSSDLGYDYWGQGTQVTVSS | low polyreactivity
QVQLVESGGGLVQAGGSLRLSCAASGRTFKKYAMGWYRQAPGKERELVAAITGSGGSTYYADSVKGRFTISRDNAKNTVYLQMNILTPEDTAVYYCAAYAYGVWHSQDGGNYWGQCTQVTVSS | low polyreactivity
QVHLVESGGGLVQAGGSLRLSCAASGRLFGVYVMGWYRQAPGKERELVAAISWSGSHTYYADSVKGRFTISRDNAKNTVYLQMNSLKPEDTEVYYCNADSYPDYTGPGLDWYDYWGQGTQVTVSS | low polyreactivity
QVQLLESGGGLVQAGGSLRLTCAASGFTFDLNAMGWYRQAPGKERELVAAISYSGDDTYYADSVKGRFTISRDNAKNTVYLQMNSLKPEDTAVYYCAADATWTYYQLYDYWGQGNQVTVSS | low polyreactivity
QVQLVESGGGLVQAGCTLRISCAPSGSIFVYNDMGWSRQAPGKERELVASISNGDNTNYADSVKGRFTISRDNAKNTVYLQMNSLKPEDTAVYYCAADGYIGSVVAYGERDYWGQGTQVTVSS | low polyreactivity
QVQLVESGGGLLQAGGSLRLSCAASGRIFPYYAMGWYRQAPGKERVLLAAISQSGGRTYYADSVKGRFTISRDNAKNTVFLQMNSLKPEDTAVYYCNADTYSSGYDYWGQGTQVTVSS | high polyreactivity
QVQLVSSGGGLVQAGGSLSLSCAASGRTFCINAMGWYRQAPGKERELVAAIRTGGSTYYADSVKGRFTISRDNAKNTVYLQMNSLKPEDTAVYYCAAVLYHNRKTEYTYGYWGQGTQVTVSS | high polyreactivity
QVQLVESGGGLVQAGGSLRLSCAASGRIFRWYAMGWYRQAPGKERELVAAISSSGGSTYYADSVKGRFTISRDNAKINVYLQMKSLKPEDTAVYYCNAEAVAYWSVPYNYWGQGTQVTVSS | high polyreactivity
QVQLVESGGGLVQAGGSLRLSCAASGITFPVYTMGWYRQAPGKERALVAAISRSGGRTYYADSVKGRFTISSDNAKNTVYLQMNSLKPEDTAVYYCAVRQATVTGGGYWGQGTQVTVSS | high polyreactivity
QVQLVESGGGLDQAGGSLRLSSAASGRTVDIYAMGWYRQAPWKEWELVAAITRGGSTYYADSVKGRFTISRDNAKNTVYLQMNCLIPEDTAVYYCSAKLGTGYRRWYDYWGQGTQVTVSS | high polyreactivity
QVQLVESGGGLVQAGGSLRLSCAASGSIFHPYAMGWYRQAPGKERELVAAISGGGTNTYYADSVKGRFTISRDNAKNTVYLQMNSLKPEDTAVYYCAAERYYWGQGTQVTVSS | high polyreactivity
QVQLVESGGGLVQAGGSLRLSCAASGNIFGQYAMGWYRQAPGKEREFVAAITWSGGSTYYADSVKGRFTISRDNAKNTVYLQMNSLKPEDTAVYYCAADYGKTHRYDYDYWGQGTQVTVSS | low polyreactivity
QVQLVESGVGLVQAGGSLRLSFASSGRIFPTNAMGSYSQAPRKEREFVPAITWRGGSTYYADSVKGRFTISRDNAKNTVYLQINSLKPEDTAVYYCAATGHIVFFRAYDYGYWGQGTQVTVSS | low polyreactivity
